Assay results reported in article PMC3155531, “In Vitro and Ex Vivo Analysis of CHRNA3 and CHRNA5 Haplotype Expression”.

Target: SP-1 (rhSP-1) (Homo sapiens, UniProt P08047 2-785)
Experiment: EMSA; 300 ng rhSP-1, 125 fmol probe; competed by 50x/100x cold probe; Promega Gel Shift Assay System (binding buffer, salt and pH not given); 10 min preincubation then 20 min with probe at 25 C; 4% non-denaturing PAGE
Settings: protein: recombinant; label: 32P 5' end; blunt

SP-1 (rhSP-1), sequence (P08047 2-785): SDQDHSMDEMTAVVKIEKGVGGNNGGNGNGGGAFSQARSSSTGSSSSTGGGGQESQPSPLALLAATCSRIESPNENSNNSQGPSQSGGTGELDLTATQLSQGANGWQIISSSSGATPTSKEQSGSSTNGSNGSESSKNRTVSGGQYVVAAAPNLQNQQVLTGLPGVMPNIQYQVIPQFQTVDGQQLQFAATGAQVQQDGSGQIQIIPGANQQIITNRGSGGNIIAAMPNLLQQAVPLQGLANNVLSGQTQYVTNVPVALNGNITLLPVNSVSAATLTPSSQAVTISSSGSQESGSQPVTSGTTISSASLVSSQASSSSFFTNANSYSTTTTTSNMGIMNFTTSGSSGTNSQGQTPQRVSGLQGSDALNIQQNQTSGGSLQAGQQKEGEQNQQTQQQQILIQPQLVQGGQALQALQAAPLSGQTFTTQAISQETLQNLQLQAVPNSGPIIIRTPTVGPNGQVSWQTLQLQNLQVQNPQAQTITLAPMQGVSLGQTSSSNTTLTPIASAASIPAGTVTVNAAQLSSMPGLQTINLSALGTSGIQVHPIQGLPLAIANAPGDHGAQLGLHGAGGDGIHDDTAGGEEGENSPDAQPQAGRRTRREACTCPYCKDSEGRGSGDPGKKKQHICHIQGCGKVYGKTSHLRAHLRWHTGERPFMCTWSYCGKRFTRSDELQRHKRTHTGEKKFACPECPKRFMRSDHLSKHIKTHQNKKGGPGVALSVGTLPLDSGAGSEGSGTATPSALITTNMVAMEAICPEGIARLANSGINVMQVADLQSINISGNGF

B1: dsA5pInDel (CHRNA5 promoter rs3841324 region) (dsDNA)
DNA 1: GATTGGGCGGGGCCAGAGGGAAATAGGGG
DNA 2: CCCCTATTTCCCTCTGGCCCCGCCCAATC
  binding result: binds
